From patent publication US20050037431A1 come the findings set out here.

The target in the experiment is Met receptor on cells (A549, MDA-MB-435, BxPC3) (UniProt P08581). Kind of experiment: cell-based or functional assay.
Chain of UniProt P08581 (P08581 25-1390 limits assumed): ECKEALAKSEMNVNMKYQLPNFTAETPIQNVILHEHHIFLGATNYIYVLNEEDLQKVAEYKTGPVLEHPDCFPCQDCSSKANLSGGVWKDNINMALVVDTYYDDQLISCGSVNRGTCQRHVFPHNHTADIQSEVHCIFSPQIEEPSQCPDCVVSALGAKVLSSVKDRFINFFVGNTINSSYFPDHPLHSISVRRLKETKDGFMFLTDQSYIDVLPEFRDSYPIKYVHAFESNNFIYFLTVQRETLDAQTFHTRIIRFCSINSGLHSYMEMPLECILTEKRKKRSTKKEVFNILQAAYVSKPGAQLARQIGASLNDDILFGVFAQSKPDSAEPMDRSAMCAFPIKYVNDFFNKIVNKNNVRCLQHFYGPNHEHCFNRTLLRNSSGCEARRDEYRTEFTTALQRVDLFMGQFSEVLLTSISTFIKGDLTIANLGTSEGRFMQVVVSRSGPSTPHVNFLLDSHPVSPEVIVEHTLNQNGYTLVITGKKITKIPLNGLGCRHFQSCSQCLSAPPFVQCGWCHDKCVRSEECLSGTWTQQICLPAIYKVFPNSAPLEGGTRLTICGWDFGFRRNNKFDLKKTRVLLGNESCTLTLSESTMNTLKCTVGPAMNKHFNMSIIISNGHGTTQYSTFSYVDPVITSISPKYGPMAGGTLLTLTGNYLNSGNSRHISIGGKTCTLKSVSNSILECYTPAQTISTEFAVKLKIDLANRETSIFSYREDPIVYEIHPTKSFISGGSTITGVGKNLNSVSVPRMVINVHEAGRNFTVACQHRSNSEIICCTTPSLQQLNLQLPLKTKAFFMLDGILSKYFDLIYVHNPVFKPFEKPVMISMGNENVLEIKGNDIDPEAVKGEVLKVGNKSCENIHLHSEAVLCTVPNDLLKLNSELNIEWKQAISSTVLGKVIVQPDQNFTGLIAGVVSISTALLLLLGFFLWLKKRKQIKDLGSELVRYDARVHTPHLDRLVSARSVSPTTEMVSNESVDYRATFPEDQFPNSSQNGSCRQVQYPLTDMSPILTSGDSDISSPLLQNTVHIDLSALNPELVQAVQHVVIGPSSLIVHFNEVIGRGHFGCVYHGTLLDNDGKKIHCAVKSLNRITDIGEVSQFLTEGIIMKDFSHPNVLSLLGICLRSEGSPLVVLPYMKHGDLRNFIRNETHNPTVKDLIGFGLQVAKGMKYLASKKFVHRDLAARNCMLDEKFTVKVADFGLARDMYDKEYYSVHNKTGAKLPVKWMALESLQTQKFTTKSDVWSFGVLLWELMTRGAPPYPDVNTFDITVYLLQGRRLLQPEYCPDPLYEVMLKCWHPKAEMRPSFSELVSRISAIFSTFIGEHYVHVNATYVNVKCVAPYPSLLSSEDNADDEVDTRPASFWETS

For “HGF G621A (two-chain full length HGF mutant) (from UniProt P14210 32-494; P14210 495-728) (ligand)”, the migration of MDA-MB435 cells (transwell, 1 nM), percent of wildtype HGF (% of wildtype activity) is 60 to 80. The figure for “HGF I699A (two-chain full length HGF mutant) (from UniProt P14210 32-494; P14210 495-728) (ligand)” is 60 to 80; for “HGF N701A (two-chain full length HGF mutant) (from UniProt P14210 32-494; P14210 495-728) (ligand)” it is 60 to 80; for “HGF P537A (two-chain full length HGF mutant) (from UniProt P14210 32-494; P14210 495-728) (ligand)” it is 60 to 80. “HGF R514A (two-chain full length HGF mutant) (from UniProt P14210 32-494; P14210 495-728) (ligand)” showed a migration of MDA-MB435 cells (transwell, 1 nM), percent of wildtype HGF (% of wildtype activity) of 60 to 80.

“HGF T620A (two-chain full length HGF mutant) (from UniProt P14210 32-494; P14210 495-728) (ligand)”: the migration of MDA-MB435 cells (transwell, 1 nM), percent of wildtype HGF (% of wildtype activity) was in the range of 60 to 80.

“HGF Y619A (two-chain full length HGF mutant) (from UniProt P14210 32-494; P14210 495-728) (ligand)” returned a migration of MDA-MB435 cells (transwell, 1 nM), percent of wildtype HGF (% of wildtype activity) of 60 to 80.
